# Experimental data as given in article PMC4319758.
# How the values were obtained:
# [1] = target: Sec61 channel, wild type (Sec61p, Sbh1p, Sss1p), in reconstituted proteoliposomes (S. cerevisiae | S. cerevisiae (endogenous in the yeast membranes)) (UniProt P32915); assay: flotation of proteoliposomes in a sucrose gradient; 20 eq of reconstituted proteoliposomes with 2 pmol 19S RP in 30 µl binding buffer (20 mM Hepes-KOH pH 7.2, 250 mM sucrose, 120 mM KOAc, 5 mM Mg(OAc)2, 5 mM ATP, 1 mM DTT), 20 min on ice then 10 min at RT; flotation 55,000 rpm, 4°C, 1 hr; 9 fractions, 19S RP detected by anti-FLAG blot
# [2] = target: Sec61 channel with Sec61p of sec61-302 (D168G, S179P, F263L, S353C), in reconstituted proteoliposomes (S. cerevisiae | S. cerevisiae (endogenous in the yeast membranes)) (UniProt P32915); assay: as above
# [3] = target: Sec61 channel with Sec61p S179P, in reconstituted proteoliposomes (S. cerevisiae | S. cerevisiae (endogenous in the yeast membranes)) (UniProt P32915)
# [4] = target: Sec61 channel with Sec61p S353C, in reconstituted proteoliposomes (S. cerevisiae | S. cerevisiae (endogenous in the yeast membranes)) (UniProt P32915)
# [5] = target: Sec61 channel, wild type (Sec61p, Sbh1p, Sss1p), in reconstituted proteoliposomes (S. cerevisiae | S. cerevisiae (endogenous in the yeast membranes)) (UniProt P32915)
# [6] = target: Sec61 channel with Sec61p S179P/S353C, in reconstituted proteoliposomes (S. cerevisiae | S. cerevisiae (endogenous in the yeast membranes)) (UniProt P32915)
# [7] = target: Sec61 channel with Sec61p of sec61-302 (D168G, S179P, F263L, S353C), in reconstituted proteoliposomes (S. cerevisiae | S. cerevisiae (endogenous in the yeast membranes)) (UniProt P32915)
substance,measurement,setting,value
"proteasome 19S regulatory particle (RP), FLAG-tagged on Rpt1 (from UniProt P33299 1-467) (complex)",percent of 19S RP bound,[1],40%
same,percent of 19S RP bound,[2],20%
same,t1/2 of Δgpαf export and degradation from microsomes in the cell-free ERAD assay with 1 mg/ml cytosol (limiting 19S RP); wildtype kinetics,[3],20 min
same,t1/2 of Δgpαf export and degradation from microsomes in the cell-free ERAD assay with 1 mg/ml cytosol (limiting 19S RP),[4],45 min
same,t1/2 of Δgpαf export and degradation from microsomes in the cell-free ERAD assay with 1 mg/ml cytosol (limiting 19S RP),[5],20 min
same,t1/2 of Δgpαf export and degradation from microsomes in the cell-free ERAD assay with 1 mg/ml cytosol (limiting 19S RP),[6],45 min
same,t1/2 of Δgpαf export and degradation from microsomes in the cell-free ERAD assay with 1 mg/ml cytosol (limiting 19S RP),[7],45 min
